# Data: the supplement of paper PMC9112550, “Optimization of the antimicrobial peptide Bac7 by deep mutational scanning” (BMC Biology, 2022)
# Tested on: Escherichia coli TOP10
# Test: shrunken log2 fold change of peptide-encoding DNA abundance (4.5 h post-induction vs induction); higher = less antimicrobial activity (less host growth inhibition)
# Conditions: time post-induction: 4.5 h; library: site-saturation at positions 5, 18, 19, 20
# 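Note: peptides expressed intracellularly from a pBAD plasmid library in pooled LB shake-flask culture, induced with 0.3% L-arabinose, DNA abundance read by NGS, three biological replicates, DESeq2 with apeglm shrinkage.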
row,Sequence,shrunken log2 fold change
1,RRIRHRPPRLPRPRPRPSYQPRP,-1.14
2,RRIRIRPPRLPRPRPRPSCHPRP,-0.243
3,RRIRGRPPRLPRPRPRPTTPPRP,0.681
4,RRIRPRPPRLPRPRPRPSRKPRP,0.0349
5,RRIRIRPPRLPRPRPRPCALPRP,0.00316
6,RRIRWRPPRLPRPRPRPLRCPRP,0.242
7,RRIRERPPRLPRPRPRPEEQPRP,0.221
8,RRIRARPPRLPRPRPRPPQCPRP,0.585
9,RRIRYRPPRLPRPRPRPNRPPRP,0.000655
10,RRIRGRPPRLPRPRPRPCPDPRP,0.359
11,RRIRARPPRLPRPRPRPTCVPRP,0.698
12,RRIRHRPPRLPRPRPRPGWRPRP,0.232
13,RRIRGRPPRLPRPRPRPMDSPRP,0.318
14,RRIRERPPRLPRPRPRPTYWPRP,-0.219
15,RRIRTRPPRLPRPRPRPFFFPRP,0.0893
16,RRIRFRPPRLPRPRPRPPMWPRP,0.486
17,RRIRRRPPRLPRPRPRPDRNPRP,0.00393
18,RRIRERPPRLPRPRPRPCTRPRP,0.0517
19,RRIRKRPPRLPRPRPRPEGFPRP,0.802
20,RRIRWRPPRLPRPRPRPVDWPRP,2.21
21,RRIRVRPPRLPRPRPRPGTEPRP,0.0578
22,RRIRGRPPRLPRPRPRPMCTPRP,2.37

row,Sequence,shrunken log2 fold change
1,RRIRQRPPRLPRPRPRPMLFPRP,-0.0627
2,RRIRCRPPRLPRPRPRPIYVPRP,-0.447
3,RRIRGRPPRLPRPRPRPEIQPRP,0.769
4,RRIRARPPRLPRPRPRPYASPRP,-0.245
5,RRIRIRPPRLPRPRPRPGKKPRP,0.0847
6,RRIRWRPPRLPRPRPRPMVHPRP,0.0275
7,RRIRVRPPRLPRPRPRPRIKPRP,-0.125
8,RRIRRRPPRLPRPRPRPRMHPRP,0.516
9,RRIRIRPPRLPRPRPRPEMRPRP,-0.0182
10,RRIRLRPPRLPRPRPRPGFPPRP,-0.2
11,RRIRTRPPRLPRPRPRPPISPRP,0.075
12,RRIRGRPPRLPRPRPRPFPCPRP,-0.0294
13,RRIRGRPPRLPRPRPRPQLNPRP,0.368
14,RRIRPRPPRLPRPRPRPRPTPRP,0.869
15,RRIRVRPPRLPRPRPRPLFVPRP,-0.175
16,RRIRYRPPRLPRPRPRPQCWPRP,-0.321
17,RRIRTRPPRLPRPRPRPDCFPRP,-0.138
18,RRIRFRPPRLPRPRPRPQEKPRP,-0.0525
19,RRIRSRPPRLPRPRPRPIQNPRP,-0.119
20,RRIRTRPPRLPRPRPRPVYYPRP,-1.24
21,RRIRLRPPRLPRPRPRPPKVPRP,0.287
22,RRIRRRPPRLPRPRPRPLNNPRP,-0.338

row,Sequence,shrunken log2 fold change
1,RRIRLRPPRLPRPRPRPCYHPRP,-0.569
2,RRIRFRPPRLPRPRPRPNHQPRP,-0.736
3,RRIRMRPPRLPRPRPRPCHGPRP,0.241
4,RRIRVRPPRLPRPRPRPVGPPRP,0.0843
5,RRIRKRPPRLPRPRPRPDARPRP,-0.0173
6,RRIRTRPPRLPRPRPRPTQQPRP,0.175
7,RRIRTRPPRLPRPRPRPKMGPRP,-0.0141
8,RRIRNRPPRLPRPRPRPMEAPRP,0.0369
9,RRIRKRPPRLPRPRPRPNDIPRP,0.0543
10,RRIRNRPPRLPRPRPRPRNHPRP,-0.0174
11,RRIRWRPPRLPRPRPRPHPLPRP,-0.0381
12,RRIRYRPPRLPRPRPRPKWCPRP,-0.00875
13,RRIRNRPPRLPRPRPRPKSLPRP,-0.433
14,RRIRYRPPRLPRPRPRPDHFPRP,0.00911
15,RRIRPRPPRLPRPRPRPQFSPRP,-0.184
16,RRIRWRPPRLPRPRPRPWTNPRP,0.0442
17,RRIRDRPPRLPRPRPRPQDTPRP,-0.366
18,RRIRHRPPRLPRPRPRPDFWPRP,0.372
19,RRIRGRPPRLPRPRPRPNPCPRP,0.102
20,RRIRHRPPRLPRPRPRPHWGPRP,-0.123
21,RRIRGRPPRLPRPRPRPWENPRP,1.02
22,RRIRGRPPRLPRPRPRPSAKPRP,1.12

row,Sequence,shrunken log2 fold change
1,RRIRSRPPRLPRPRPRPKSLPRP,-0.0747
2,RRIRARPPRLPRPRPRPEHFPRP,0.126
3,RRIRGRPPRLPRPRPRPETCPRP,0.613
4,RRIRTRPPRLPRPRPRPRDSPRP,0.538
5,RRIRTRPPRLPRPRPRPSFYPRP,-0.343
6,RRIRFRPPRLPRPRPRPFVCPRP,-0.398
7,RRIRWRPPRLPRPRPRPWGYPRP,0.0906
8,RRIRMRPPRLPRPRPRPCPWPRP,0.0763
9,RRIRWRPPRLPRPRPRPNKAPRP,-0.00104
10,RRIRERPPRLPRPRPRPKTAPRP,-0.0233
11,RRIRHRPPRLPRPRPRPRADPRP,0.185
12,RRIRARPPRLPRPRPRPYLEPRP,0.982
13,RRIRFRPPRLPRPRPRPYAQPRP,-0.533
14,RRIRNRPPRLPRPRPRPINAPRP,-0.00965
15,RRIRSRPPRLPRPRPRPMKHPRP,-0.212
16,RRIRWRPPRLPRPRPRPYNKPRP,-1.34
17,RRIRWRPPRLPRPRPRPHPNPRP,-0.0793
18,RRIRLRPPRLPRPRPRPFNCPRP,0.0515
19,RRIRFRPPRLPRPRPRPAIWPRP,0.195
20,RRIRTRPPRLPRPRPRPCGLPRP,0.165
21,RRIRPRPPRLPRPRPRPYWSPRP,-0.324
22,RRIRVRPPRLPRPRPRPNYWPRP,-0.307

row,Sequence,shrunken log2 fold change
1,RRIRKRPPRLPRPRPRPSDSPRP,-0.132
2,RRIRYRPPRLPRPRPRPTRTPRP,-0.0719
3,RRIRVRPPRLPRPRPRPFHWPRP,-0.0122
4,RRIRWRPPRLPRPRPRPYMVPRP,-0.844
5,RRIRQRPPRLPRPRPRPSMTPRP,-0.285
6,RRIRRRPPRLPRPRPRPRYKPRP,-0.0686
7,RRIRKRPPRLPRPRPRPTMKPRP,-0.0364
8,RRIRMRPPRLPRPRPRPLHEPRP,0.545
9,RRIRLRPPRLPRPRPRPWEAPRP,-0.229
10,RRIRNRPPRLPRPRPRPNLQPRP,-0.446
11,RRIRWRPPRLPRPRPRPFVFPRP,-0.0764
12,RRIRERPPRLPRPRPRPVSDPRP,-0.26
13,RRIRRRPPRLPRPRPRPGTDPRP,0.0719
14,RRIRPRPPRLPRPRPRPMLTPRP,-0.333
15,RRIRIRPPRLPRPRPRPVWHPRP,-0.413
16,RRIRQRPPRLPRPRPRPPGMPRP,0.256
17,RRIRHRPPRLPRPRPRPDSRPRP,-0.00136
18,RRIRNRPPRLPRPRPRPCWAPRP,-0.057
19,RRIRTRPPRLPRPRPRPHHEPRP,-0.103
20,RRIRLRPPRLPRPRPRPRSTPRP,-0.00899
21,RRIRMRPPRLPRPRPRPIPSPRP,0.0101
